Reference: patent publication US20230287598A1 (TAURUS BIOSCIENCES, published 2023)
Where a chain is given by its changes, count along the chain named. In names and notes the source's numbering stands. Like-named read-outs stand apart in the source and are kept apart here.

Legend:
CXCR1 [1] = molecular target: T1, CXCR1 (UniProt P25024 1-350, limits assumed); assay: flow cytometry, supernatant at 5 nM IgG
T1 construct: whole, on cells; DiscoveRx PathHunter cell line; any reporter tag on the receptor is not described; also called CXCR1 receptor; CXCR1-U2OS
T1 sequence (looked up): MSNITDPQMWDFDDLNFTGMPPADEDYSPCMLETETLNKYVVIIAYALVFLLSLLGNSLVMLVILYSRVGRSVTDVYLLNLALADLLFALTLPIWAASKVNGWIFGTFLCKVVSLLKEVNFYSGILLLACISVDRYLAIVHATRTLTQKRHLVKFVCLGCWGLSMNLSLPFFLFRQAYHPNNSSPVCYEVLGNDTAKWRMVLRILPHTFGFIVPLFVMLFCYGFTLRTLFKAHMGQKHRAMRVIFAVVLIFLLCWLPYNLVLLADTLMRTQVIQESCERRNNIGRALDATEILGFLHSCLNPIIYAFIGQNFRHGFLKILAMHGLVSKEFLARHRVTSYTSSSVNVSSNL

CXCR1 [2] = molecular target: T1, CXCR1; assay: flow cytometry, supernatant at 5 nM IgG; remark: listed apart in the source

B1: VH4-34+CDR3-IL8_CDR1 Cow_CDR2 E50S / VL1-51 S2A, T5N, P8S, A12G, A13S, P14L, D51G, N52D, N53T IgG (antibody)
VH: QVQLQQWGAGLLKPSETLSLTCTASGFSLSDKAVGWIRQPPGKGLEWIGSINHSGSTNYNPSLKSRVTISVDTSKNQFSLKLSSVTAADTAVYYCTSVHQETKKYQSPRSAKELRCQCIKTYSKPFHPKFIKELRVIESGPHCANTEIIVKLSDGRELCLDPKENWVQRVVEKFLKRAENSGSGSYTYNYEWHVDVWGQGLLVTVSSAS
light: QAVLNQPSSVSGSLGQKVTISCSGSSSNIGNNYVSWYQQLPGTAPKLLIYGDTKRPSGIPDRFSGSKSGTSATLGITGLQTGDEADYYCASAEDSSSNAVFGSGTTLTVLGQPKAAPSVTLFPPSSEELQANKATLVCLISDFYPGAVTVAWKADSSPVKAGVETTTPSKQSNNKYAASSYLSLTPEQWKSHRSYSCQVTHEGSTVEKTVAPTECS
Specific Binding (CXCR1-Cell median AFU / Parental Cell median AFU) (CXCR1 [1]): 6

B2: VH4-34+CDR3-IL8_CDR2-Cow_Q5RQ6E / VL1-51 S2A, T5N, P8S, A12G, A13S, P14L, K46R, L47T, D51G, N52D, N53T, K54S, P56A IgG (antibody)
VH: QVQLREWGAGLLKPSETLSLTCAVYGGSFSGYYWSWIRQPPGKGLEWLGSIDTGGNTGYNPSLKSRVTISVDTSKNQFSLKLSSVTAADTAVYYCTSVHQETKKYQSPRSAKELRCQCIKTYSKPFHPKFIKELRVIESGPHCANTEIIVKLSDGRELCLDPKENWVQRVVEKFLKRAENSGSGSYTYNYEWHVDVWGQGLLVTVSS
light: B1 light with K46R, L47T, K54S, P56A
Specific Binding (CXCR1-Cell median AFU / Parental Cell median AFU) (CXCR1 [2]): 1

B3: VH4-34+CDR3-IL8_CDR1-G31DY32K_CDR2-E50S_Q5RQ6E / VL1-51 I29V, N32G, K46R, L47T, D51G, N52D, N53T IgG (antibody)
VH: B2 VH with G31D, Y32K, L48I, D52N, T53H, G54S, N56S, G58N
light: B1 light with A2S, N5T, S8P, G12A, S13A, L14P, I29V, N32G, K46R, L47T
Specific Binding (CXCR1-Cell median AFU / Parental Cell median AFU) (CXCR1 [2]): 1

B4: VH4-34+CDR3-IL8_CDR1-Cow_CDR2-E50S_Q5RQ6E / VL1-51 S2A, T5N, P8S, A12G, A13S, P14L, K46R, L47T, D51G, N52D, N53T, K54S, P56A IgG (antibody)
VH: QVQLREWGAGLLKPSETLSLTCTASGFSLSDKAVGWIRQPPGKGLEWIGSINHSGSTNYNPSLKSRVTISVDTSKNQFSLKLSSVTAADTAVYYCTSVHQETKKYQSPRSAKELRCQCIKTYSKPFHPKFIKELRVIESGPHCANTEIIVKLSDGRELCLDPKENWVQRVVEKFLKRAENSGSGSYTYNYEWHVDVWGQGLLVTVSS
light: B1 light with K46R, L47T, K54S, P56A
Specific Binding (CXCR1-Cell median AFU / Parental Cell median AFU) (CXCR1 [2]): 2

B5: VH4-34+CDR3-IL8_CDR1-Cow_CDR2-Cow_Q5RQ6E / VL1-51 I29V, N32G, K46R, L47T, D51G, N52D, N53T IgG (antibody)
VH: B4 VH with I48L, N52D, H53T, S54G, S56N, N58G
light: B1 light with A2S, N5T, S8P, G12A, S13A, L14P, I29V, N32G, K46R, L47T
Specific Binding (CXCR1-Cell median AFU / Parental Cell median AFU) (CXCR1 [2]): 1

B6: VH4-34+CDR3-IL8_CDR1-G31DY32K_Q5RQ6E / VL1-51 S2A, T5N, P8S, A12G, A13S, P14L, D51G, N52D, N53T IgG (antibody)
VH: B2 VH with G31D, Y32K, L48I, S50E, D52N, T53H, G54S, N56S, G58N
light: B1 light
Specific Binding (CXCR1-Cell median AFU / Parental Cell median AFU) (CXCR1 [2]): 2

B7: VH4-34+CDR3-IL8_Q5RQ6E / VL1-51 S2A, T5N, P8S, A12G, A13S, P14L, K46R, L47T, D51G, N52D, N53T IgG (antibody)
VH: B2 VH with L48I, S50E, D52N, T53H, G54S, N56S, G58N
light: B1 light with K46R, L47T
notes: nt HC 490, LC 486
Specific Binding (CXCR1-Cell median AFU / Parental Cell median AFU) (CXCR1 [2]): 10

B8: VH4-34+CDR3-IL8_CDR1-G31DY32K_Q5RQ6E / VL1-51 S2A, T5N, P8S, A12G, A13S, P14L, K46R, L47T, D51G, N52D, N53T, K54S, P56A IgG (antibody)
VH: B2 VH with G31D, Y32K, L48I, S50E, D52N, T53H, G54S, N56S, G58N
light: B1 light with K46R, L47T, K54S, P56A
Specific Binding (CXCR1-Cell median AFU / Parental Cell median AFU) (CXCR1 [2]): 2

B9: VH4-34+CDR3-IL8_CDR1 Cow_CDR2 E50S / VL1-51 S2A, T5N, P8S, A12G, A13S, P14L, K46R, L47T, D51G, N52D, N53T IgG (antibody)
VH: B1 VH
light: B1 light with K46R, L47T
Specific Binding (CXCR1-Cell median AFU / Parental Cell median AFU) (CXCR1 [1]): 6

B10: VH4-34+CDR3-IL8_CDR1-Cow_Q5RQ6E / VL1-51 I29V, N32G, K46R, L47T, D51G, N52D, N53T IgG (antibody)
VH: B4 VH with S50E
light: B1 light with A2S, N5T, S8P, G12A, S13A, L14P, I29V, N32G, K46R, L47T
Specific Binding (CXCR1-Cell median AFU / Parental Cell median AFU) (CXCR1 [2]): 1

B11: VH4-34+CDR3-IL8_Q5RQ6E / VL1-51 S2A, T5N, P8S, A12G, A13S, P14L, K46R, L47T, D51G, N52D, N53T, K54S, P56A IgG (antibody)
VH: B2 VH with L48I, S50E, D52N, T53H, G54S, N56S, G58N
light: B1 light with K46R, L47T, K54S, P56A
Specific Binding (CXCR1-Cell median AFU / Parental Cell median AFU) (CXCR1 [2]): 3

B12: VH4-34+CDR3-IL8_CDR1 G31D,Y32K_CDR2 E50S / VL1-51 S2A, T5N, P8S, A12G, A13S, P14L IgG (antibody)
VH: B1 VH with T23A, A24V, S25Y, F27G, L29F, A33Y, V34W, G35S
light: B1 light with G51D, D52N, T53N
Specific Binding (CXCR1-Cell median AFU / Parental Cell median AFU) (CXCR1 [1]): 5

B13: VH4-34+CDR3-IL8_CDR1-Cow_CDR2-E50S_Q5RQ6E / VL1-51 I29V, N32G, K46R, L47T, D51G, N52D, N53T, K54S, P56A IgG (antibody)
VH: B4 VH
light: QSVLTQPPSVSAAPGQKVTISCSGSSSNVGNGYVSWYQQLPGTAPRTLIYGDTSRASGIPDRFSGSKSGTSATLGITGLQTGDEADYYCASAEDSSSNAVFGSGTTLTVLGQPKAAPSVTLFPPSSEELQANKATLVCLISDFYPGAVTVAWKADSSPVKAGVETTTPSKQSNNKYAASSYLSLTPEQWKSHRSYSCQVTHEGSTVEKTVAPTECS
Specific Binding (CXCR1-Cell median AFU / Parental Cell median AFU) (CXCR1 [2]): 2

B14: VH4-34+CDR3-IL8_CDR1-Cow_CDR2-Cow_Q5RQ6E / VL1-51 S2A, T5N, P8S, A12G, A13S, P14L, D51G, N52D, N53T IgG (antibody)
VH: B4 VH with I48L, N52D, H53T, S54G, S56N, N58G
light: B1 light
Specific Binding (CXCR1-Cell median AFU / Parental Cell median AFU) (CXCR1 [2]): 4

B15: VH4-34+CDR3-IL8_CDR1-Cow_Q5RQ6E / VL1-51 I29V, N32G, K46R, L47T, D51G, N52D, N53T, K54S, P56A IgG (antibody)
VH: B4 VH with S50E
light: B13 light
Specific Binding (CXCR1-Cell median AFU / Parental Cell median AFU) (CXCR1 [2]): 2

B16: VH4-34+CDR3-IL8_CDR1 Cow_CDR2 Cow / VL1-51 S2A, T5N, P8S, A12G, A13S, P14L, D51G, N52D, N53T IgG (antibody)
VH: B1 VH with I48L, N52D, H53T, S54G, S56N, N58G
light: B1 light
Specific Binding (CXCR1-Cell median AFU / Parental Cell median AFU) (CXCR1 [1]): 10
